According to patent US20170044257A1 (BRIGHAM AND WOMEN S HOSPITAL, published 2017):

Biological target: T1, human alpha-fetoprotein (hAFP) (human, UniProt P02771 19-609)
T1 construct: No signal peptide cleavage site is stated; also called human AFP
T1 sequence: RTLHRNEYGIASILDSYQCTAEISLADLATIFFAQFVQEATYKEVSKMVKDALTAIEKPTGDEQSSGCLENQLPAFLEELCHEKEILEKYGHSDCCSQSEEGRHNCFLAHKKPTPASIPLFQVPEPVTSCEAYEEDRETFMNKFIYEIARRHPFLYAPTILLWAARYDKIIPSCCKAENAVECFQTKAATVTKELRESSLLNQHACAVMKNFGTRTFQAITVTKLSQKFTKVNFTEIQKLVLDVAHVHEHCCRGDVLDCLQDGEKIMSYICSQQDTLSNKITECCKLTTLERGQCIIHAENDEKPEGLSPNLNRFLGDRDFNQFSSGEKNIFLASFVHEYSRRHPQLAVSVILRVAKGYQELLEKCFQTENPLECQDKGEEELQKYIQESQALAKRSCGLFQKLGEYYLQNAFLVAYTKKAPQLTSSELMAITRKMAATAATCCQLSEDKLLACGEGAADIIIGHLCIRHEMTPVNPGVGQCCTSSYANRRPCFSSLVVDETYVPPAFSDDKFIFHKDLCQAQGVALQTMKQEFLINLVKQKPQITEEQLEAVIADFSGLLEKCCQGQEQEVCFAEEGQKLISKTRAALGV
Test: SPR (Biacore 3000), mFcRn/mβ2m on chip, hAFP injected, neutral pH
Experimental: Surface plasmon resonance was conducted using a Biacore 3000 instrument (GE Healthcare) with CMS sensor chips coupled with recombinant human FcRn & hβ₂m heterodimer protein or mouse FcRn & mβ₂m (1000 RU). The coupling was performed by injecting 25 μg/mL of the protein diluted in 10 mM sodium acetate pH 5.0 using the amine coupling kit (GE Healthcare). Phosphate buffer (67 mM phosphate buffer, 0.15 M NaCl, 0.005% Tween 20) at pH 6.0 or pH 7.4 was used as running buffer. Glycine pH 2.5 was used for regeneration of the flow cells. hAFP (SinoBiological) was injected at 25° C. with a flow rate of 25 μl/min, and data were analyzed using the BIAevaluation 4.1 software where the sensorgrams were zero adjusted and reference cell values subtracted.

B1: recombinant mouse FcRn & mβ2m (receptor)
chain: SETRPPLMYHLTAVSNPSTGLPSFWATGWLGPQQYLTYNSLRQEADPCGAWMWENQVSWYWEKETTDLKSKEQLFLEALKTLEKILNGTYTLQGLLGCELASDNSSVPTAVFALNGEEFMKFNPRIGNWTGEWPETEIVANLWMKQPDAARKESEFLLNSCPERLLGHLERGRRNLEWKEPPSMRLKARPGNSGSSVLTCAAFSFYPPELKFRFLRNGLASGSGNCSTGPNGDGSFHAWSLLEVKRGDEHHYQCQVEHEGLAQPLTVDLDSSARSS
b2m: IQKTPQIQVYSRHPPENGKPNILNCYVTQFHPPHIEIQMLKNGKKIPKVEMSDMSFSKDWSFYILAHTEFTPTETDTYACRVKHASMAEPKTVYWDRDM
notes: Coupled to the Biacore chip for SPR; also called mFcRn
- binding result: binds
